Results on eight sequences are retold here after the supplement of paper PMC10065799, “High-throughput profiling of sequence recognition by tyrosine kinases and SH2 domains using bacterial peptide display” (eLife, 2023).

Data set [1] addresses Fes (UniProt P07332). The data set is described as follows: phosphorylation enrichment, bacterial display (enrichment ratio); higher = better substrate or ligand; peptides without Tyr show the background.
In data set [2] the target is EPHB2 (UniProt P29323). Described as above.
For data set [3], the system named is AncSZ. The data set is described as above.
Data set [4] deals with Fer (mouse). Described as above.
Data set [5] addresses MERTK (UniProt Q12866). The data set is described as above.
Data set [6] relates to c-Src. Described as above.
The target of data set [7] is FGFR1 (UniProt P11362). The data set is described as above.
In data set [8] the target is Fyn (UniProt P06241). The description is as above.
For data set [9], the system named is c-Abl (mouse). The data set is described as above.
Data set [10] addresses FGFR3 (UniProt P22607). Described as above.
The target in data set [11] is Hck (UniProt P08631). The data set is described as above.
Data set [12] addresses Jak2 (UniProt O60674). The description is as above.
The target in data set [13] is EPHB1 (UniProt P54762). The data set is described as above.
The target in data set [14] is Grb2 SH2 (UniProt P62993). The data set is described as follows: SH2 binding enrichment of the phosphorylated peptide, bacterial display (enrichment ratio); higher = better substrate or ligand; peptides without Tyr show the background.
For data set [15], the target named is c-Src SH2. The description is as above.
For data set [16], the target named is SHP2-C SH2. The description is as above.
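For SH2 binding enrichment of the phosphorylated peptide, bacterial display in this document: peptide library displayed on the E. coli surface as eCPX fusions, selected cells deep-sequenced, score is each peptide's frequency after selection divided by its frequency in the input.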
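For phosphorylation enrichment, bacterial display in this document: 11-residue human phosphosite peptides and single-mutation variants displayed on the E. coli surface, counted by deep sequencing, each peptide's frequency after selection divided by its frequency in the unselected input library; frequency after pTyr selection over input frequency; kinase dosed for 20-30% of maximal phosphorylation in three min.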

FGFR1, sequence (P11362 whole entry, looked up): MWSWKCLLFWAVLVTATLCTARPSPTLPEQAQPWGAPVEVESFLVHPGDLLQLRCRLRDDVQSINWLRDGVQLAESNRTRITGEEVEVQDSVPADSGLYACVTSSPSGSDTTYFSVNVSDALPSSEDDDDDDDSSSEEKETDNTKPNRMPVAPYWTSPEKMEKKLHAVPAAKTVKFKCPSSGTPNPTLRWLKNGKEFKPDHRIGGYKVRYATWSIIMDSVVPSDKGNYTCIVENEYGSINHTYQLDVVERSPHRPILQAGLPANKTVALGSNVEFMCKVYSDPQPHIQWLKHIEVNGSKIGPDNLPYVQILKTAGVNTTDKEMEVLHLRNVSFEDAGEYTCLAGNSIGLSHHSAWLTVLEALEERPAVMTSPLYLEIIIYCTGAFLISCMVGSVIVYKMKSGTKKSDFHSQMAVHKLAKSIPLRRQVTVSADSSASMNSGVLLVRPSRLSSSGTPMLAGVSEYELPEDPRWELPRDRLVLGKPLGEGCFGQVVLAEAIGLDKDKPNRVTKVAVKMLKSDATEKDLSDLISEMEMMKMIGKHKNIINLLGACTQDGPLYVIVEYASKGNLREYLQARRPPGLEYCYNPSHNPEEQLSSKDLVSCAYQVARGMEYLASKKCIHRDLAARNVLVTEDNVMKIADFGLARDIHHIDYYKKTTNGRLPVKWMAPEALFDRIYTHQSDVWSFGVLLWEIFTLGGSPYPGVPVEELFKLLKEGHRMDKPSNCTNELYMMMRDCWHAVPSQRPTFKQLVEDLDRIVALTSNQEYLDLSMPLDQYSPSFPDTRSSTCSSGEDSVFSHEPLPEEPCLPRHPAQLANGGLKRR
EPHB1, sequence (P54762 whole entry, looked up): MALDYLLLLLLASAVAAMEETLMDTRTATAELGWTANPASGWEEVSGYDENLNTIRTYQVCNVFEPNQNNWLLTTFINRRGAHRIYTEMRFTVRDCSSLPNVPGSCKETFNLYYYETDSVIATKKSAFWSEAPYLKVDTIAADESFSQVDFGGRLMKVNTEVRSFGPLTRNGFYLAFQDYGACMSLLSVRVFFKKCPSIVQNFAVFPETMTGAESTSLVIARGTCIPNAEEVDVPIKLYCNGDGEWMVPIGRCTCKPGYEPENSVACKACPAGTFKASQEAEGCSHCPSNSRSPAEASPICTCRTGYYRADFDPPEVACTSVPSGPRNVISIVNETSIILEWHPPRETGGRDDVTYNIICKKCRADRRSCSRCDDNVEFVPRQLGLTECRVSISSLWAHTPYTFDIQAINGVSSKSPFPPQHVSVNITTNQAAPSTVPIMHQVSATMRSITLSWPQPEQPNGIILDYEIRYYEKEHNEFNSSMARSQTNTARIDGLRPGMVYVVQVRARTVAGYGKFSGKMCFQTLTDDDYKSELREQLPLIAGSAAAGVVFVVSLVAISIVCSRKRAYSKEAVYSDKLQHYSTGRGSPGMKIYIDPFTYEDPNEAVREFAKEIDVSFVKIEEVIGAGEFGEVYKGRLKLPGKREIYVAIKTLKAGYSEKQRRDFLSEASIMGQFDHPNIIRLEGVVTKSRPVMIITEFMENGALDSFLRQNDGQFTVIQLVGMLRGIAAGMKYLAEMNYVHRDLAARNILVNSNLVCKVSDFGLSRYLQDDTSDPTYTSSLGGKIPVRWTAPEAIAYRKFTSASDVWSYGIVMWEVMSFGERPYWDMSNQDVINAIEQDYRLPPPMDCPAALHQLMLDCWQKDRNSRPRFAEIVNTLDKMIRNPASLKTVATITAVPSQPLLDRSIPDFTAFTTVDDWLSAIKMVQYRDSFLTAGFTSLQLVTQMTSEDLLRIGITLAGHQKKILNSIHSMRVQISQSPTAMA
FGFR3, sequence (P22607 whole entry, looked up): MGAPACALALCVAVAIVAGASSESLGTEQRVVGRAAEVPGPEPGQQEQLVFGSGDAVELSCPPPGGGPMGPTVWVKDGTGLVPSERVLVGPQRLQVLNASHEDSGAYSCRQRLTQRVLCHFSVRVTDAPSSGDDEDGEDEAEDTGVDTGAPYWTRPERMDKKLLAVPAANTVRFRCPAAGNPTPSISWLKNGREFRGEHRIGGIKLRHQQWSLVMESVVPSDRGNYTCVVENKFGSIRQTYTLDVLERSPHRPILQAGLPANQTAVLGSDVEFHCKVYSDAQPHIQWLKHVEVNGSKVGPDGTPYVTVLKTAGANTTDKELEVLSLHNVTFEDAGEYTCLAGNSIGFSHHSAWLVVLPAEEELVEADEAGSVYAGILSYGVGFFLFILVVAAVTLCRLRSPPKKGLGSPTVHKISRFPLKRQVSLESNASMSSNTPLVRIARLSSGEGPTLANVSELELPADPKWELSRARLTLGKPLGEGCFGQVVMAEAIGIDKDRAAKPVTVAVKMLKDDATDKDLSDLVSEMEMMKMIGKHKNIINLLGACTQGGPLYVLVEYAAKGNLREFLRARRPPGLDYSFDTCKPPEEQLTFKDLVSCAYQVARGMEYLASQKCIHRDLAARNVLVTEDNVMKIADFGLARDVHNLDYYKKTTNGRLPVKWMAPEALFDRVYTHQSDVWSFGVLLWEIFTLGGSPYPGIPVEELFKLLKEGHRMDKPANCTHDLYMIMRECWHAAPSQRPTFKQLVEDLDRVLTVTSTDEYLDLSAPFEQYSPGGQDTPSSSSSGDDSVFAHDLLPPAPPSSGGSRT
Hck, sequence (P08631 whole entry, looked up): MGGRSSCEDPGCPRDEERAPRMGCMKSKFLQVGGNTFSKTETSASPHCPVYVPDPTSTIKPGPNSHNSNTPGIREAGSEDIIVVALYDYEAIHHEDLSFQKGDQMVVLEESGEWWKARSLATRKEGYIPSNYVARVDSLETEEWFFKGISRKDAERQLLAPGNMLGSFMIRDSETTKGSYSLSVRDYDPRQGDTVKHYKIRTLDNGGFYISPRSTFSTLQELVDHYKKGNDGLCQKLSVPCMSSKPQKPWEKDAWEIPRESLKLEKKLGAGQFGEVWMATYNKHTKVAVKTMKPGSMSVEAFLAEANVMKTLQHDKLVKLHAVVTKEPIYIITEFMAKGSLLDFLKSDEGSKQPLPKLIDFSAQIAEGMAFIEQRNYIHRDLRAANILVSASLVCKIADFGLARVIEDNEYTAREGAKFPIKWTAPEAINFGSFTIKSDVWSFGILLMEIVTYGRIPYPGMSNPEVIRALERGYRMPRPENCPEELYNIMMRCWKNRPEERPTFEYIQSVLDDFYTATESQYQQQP
Grb2 SH2, sequence (P62993 whole entry, looked up): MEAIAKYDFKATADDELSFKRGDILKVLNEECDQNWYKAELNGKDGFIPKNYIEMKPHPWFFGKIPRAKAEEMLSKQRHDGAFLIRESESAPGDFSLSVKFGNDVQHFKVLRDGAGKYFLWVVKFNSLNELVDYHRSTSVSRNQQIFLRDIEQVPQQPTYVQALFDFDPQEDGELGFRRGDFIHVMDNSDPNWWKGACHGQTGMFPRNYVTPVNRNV
MERTK, sequence (Q12866 whole entry, looked up): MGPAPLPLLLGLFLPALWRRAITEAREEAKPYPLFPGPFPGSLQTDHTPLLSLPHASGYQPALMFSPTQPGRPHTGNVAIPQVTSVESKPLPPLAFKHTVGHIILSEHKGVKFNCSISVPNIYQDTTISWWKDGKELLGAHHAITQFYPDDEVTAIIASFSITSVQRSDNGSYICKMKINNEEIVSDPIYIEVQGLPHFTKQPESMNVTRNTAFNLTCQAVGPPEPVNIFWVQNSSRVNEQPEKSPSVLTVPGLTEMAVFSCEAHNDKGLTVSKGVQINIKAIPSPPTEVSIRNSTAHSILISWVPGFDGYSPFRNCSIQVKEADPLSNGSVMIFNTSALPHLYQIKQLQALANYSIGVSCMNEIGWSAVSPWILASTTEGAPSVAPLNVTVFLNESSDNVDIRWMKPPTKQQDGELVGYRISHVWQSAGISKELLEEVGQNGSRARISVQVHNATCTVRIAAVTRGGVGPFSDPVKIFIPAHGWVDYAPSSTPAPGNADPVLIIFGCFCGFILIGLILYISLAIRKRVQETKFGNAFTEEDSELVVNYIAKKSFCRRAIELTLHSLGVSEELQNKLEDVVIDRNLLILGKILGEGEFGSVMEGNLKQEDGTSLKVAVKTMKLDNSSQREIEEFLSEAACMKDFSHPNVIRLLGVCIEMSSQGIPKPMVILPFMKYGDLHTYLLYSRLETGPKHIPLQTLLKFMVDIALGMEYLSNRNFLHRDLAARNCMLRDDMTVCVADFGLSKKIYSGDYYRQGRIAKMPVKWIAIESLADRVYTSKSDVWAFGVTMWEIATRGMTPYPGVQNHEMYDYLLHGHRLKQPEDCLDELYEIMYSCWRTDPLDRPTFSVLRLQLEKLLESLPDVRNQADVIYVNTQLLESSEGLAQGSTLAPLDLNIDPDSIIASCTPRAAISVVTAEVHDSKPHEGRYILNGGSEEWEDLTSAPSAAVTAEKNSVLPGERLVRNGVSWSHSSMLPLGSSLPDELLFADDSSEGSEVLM
Fyn, sequence (P06241 whole entry, looked up): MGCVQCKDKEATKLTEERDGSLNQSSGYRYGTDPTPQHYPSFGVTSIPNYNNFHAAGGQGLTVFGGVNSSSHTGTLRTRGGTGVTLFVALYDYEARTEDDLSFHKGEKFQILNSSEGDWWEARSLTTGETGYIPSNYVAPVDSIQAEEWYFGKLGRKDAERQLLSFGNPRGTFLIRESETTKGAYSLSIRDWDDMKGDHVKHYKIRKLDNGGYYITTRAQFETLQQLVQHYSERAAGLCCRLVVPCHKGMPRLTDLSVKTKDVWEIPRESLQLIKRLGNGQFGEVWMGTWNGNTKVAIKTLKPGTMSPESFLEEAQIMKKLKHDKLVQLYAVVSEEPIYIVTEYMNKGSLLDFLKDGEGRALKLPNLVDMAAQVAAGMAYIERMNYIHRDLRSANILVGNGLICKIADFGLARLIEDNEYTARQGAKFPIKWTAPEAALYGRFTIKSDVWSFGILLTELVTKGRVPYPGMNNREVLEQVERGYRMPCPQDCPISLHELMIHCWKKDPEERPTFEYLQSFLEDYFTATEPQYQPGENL

As to SRNSKYNAEST [PSEN1_Y315_K311R], the phosphorylation enrichment turned out to be 0.441 in [1]; 0.46 in data set [2]; 0.512 in [3]; 0.347 in [4]; 0.464 in [5]; 0.378 in data set [6]. For the same sequence, the phosphorylation enrichment in [7] turned out to be 0.378; in [8], 0.366; in [9], 0.497; in data set [10], 0.376; in data set [11], 0.323; in data set [12], 0.489. Besides, the phosphorylation enrichment in data set [13] is 0.328. Besides, the results for the SH2 binding enrichment in [14], in data set [15] and in data set [16] were 0.774, 0.386 and 0.522, respectively.
As to SSFSRYIMMPN [LEF1_Y114_G113R_YF], the phosphorylation enrichment in data set [1] came out at 0.806; in data set [2], 0.556; in data set [3], 0.738; in data set [4] it was 0.484; in data set [5], 0.588; in data set [6] it was 0.485. Further, the phosphorylation enrichment in [7] is 0.599; in data set [8], 0.509; in [9], 0.626; in data set [10] it was 0.617; in [11], 0.559; in [12], 0.812. Moreover, the phosphorylation enrichment in data set [13] stood at 0.471. Moreover, the SH2 binding enrichment in data set [14] worked out at 0.73; in data set [15], 0.946; in [16], 0.728.
Turning to SSPRRYTIAAL [TTR_Y125_G121S], the phosphorylation enrichment in [1] amounted to 0.567; in data set [2], 0.374; in data set [3], 0.437; in data set [4] it was 0.382; in data set [5], 0.34; in data set [6], 0.312. In addition, the phosphorylation enrichment in data set [7] was 0.383; in [8], 0.412; in data set [9], 0.4; in data set [10], 0.402; in [11], 0.378; in [12] it was 0.356. Further, the phosphorylation enrichment in data set [13] was found to be 0.303. Also, the SH2 binding enrichment in data set [14] amounted to 0.787; in data set [15], 0.477; in data set [16] it was 0.789.
With SSSGAYGGGFG [KRT19_Y61_YF], the phosphorylation enrichment in data set [1] turned out to be 0.689; in [2] it was 0.378; in data set [3] it was 0.553; in [4] it was 0.396; in [5], 0.396; in [6] it was 0.452. The phosphorylation enrichment in data set [7] was 0.412; in [8], 0.434; in [9], 0.539; in data set [10] it was 0.464; in data set [11] it was 0.415; in [12], 0.595. Besides, the phosphorylation enrichment in data set [13] amounted to 0.383. Besides, the results for the SH2 binding enrichment in data set [14], in [15] and in [16] were 0.724, 0.427 and 0.517, respectively.
SSSNPYSTVTM [ACTN2_Y599]: the phosphorylation enrichment was 0.751 in [1]; 0.389 in [2]; 0.62 in data set [3]; 10.9 in data set [4]; 0.521 in [5]; 1.9 in data set [6]. For the same sequence, the phosphorylation enrichment in data set [7] came to 0.543; in data set [8], 0.976; in data set [9] it was 0.768; in data set [10], 0.486; in data set [11], 0.995; in data set [12] it was 0.599. The phosphorylation enrichment in [13] stood at 0.461. The SH2 binding enrichment amounted to 0.766 in data set [14], 3.42 in [15] and 7.62 in data set [16].
On to STDDGCIDLQF [TMEM230_Y29_Y29C], for which the phosphorylation enrichment in data set [1] worked out at 1.13; in data set [2], 0.636; in [3], 1.14; in data set [4], 0.55; in data set [5], 0.646; in data set [6], 0.503. For the same sequence, the phosphorylation enrichment in [7] was determined as 0.613; in data set [8], 0.56; in [9], 0.668; in [10] it was 0.797; in [11], 0.665; in data set [12] it was 0.979. Besides, in data set [13], the phosphorylation enrichment is 0.492. The SH2 binding enrichment in [14] worked out at 0.939; in [15], 0.76; in [16], 0.815.
As for STEEQYRICQV [EFHC1_Y115_R118C], the phosphorylation enrichment in [1] worked out at 1.53; in data set [2], 0.629; in [3], 1.09; in [4], 0.598; in [5], 0.492; in [6], 0.566. In addition, the phosphorylation enrichment in data set [7] came out at 0.599; in data set [8], 0.541; in [9] it was 0.999; in [10], 0.848; in data set [11] it was 0.52; in data set [12] it was 1.08. Further, in data set [13], the phosphorylation enrichment was 0.71. Moreover, the SH2 binding enrichment in data set [14] was found to be 0.695; in data set [15], 0.367; in data set [16], 0.52.
As for SVTCMYSPALN [TP53_Y126_T125M], the phosphorylation enrichment in data set [1] stood at 1.47; in data set [2] it was 0.632; in data set [3] it was 1.39; in data set [4] it was 0.667; in [5] it was 0.472; in [6], 0.804. Further, the phosphorylation enrichment in data set [7] is 0.481; in data set [8], 0.501; in data set [9], 0.97; in data set [10] it was 0.749; in data set [11], 0.594; in data set [12], 1.36. Further, the phosphorylation enrichment in [13] came to 0.738. Besides, the results for the SH2 binding enrichment in data set [14], in data set [15] and in data set [16] were 0.737, 0.457 and 0.52, respectively.
